Results reported in the supplement of paper PMC10724198.
± gives the standard deviation of the averaged measurements.

The sequences below were run on Saccharomyces cerevisiae (assay: protein stability index of tFT-peptide fusion (C-terminal peptide) (PSI (0-1 scale)); higher = more stable (slower turnover)). Settings: genetic background: wild type; temperature: 30 C.
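Note: PSI is a weighted mean of sequencing reads over stability bins, variants kept only with over 10 reads, mCherry proximal and sfGFP distal, peptide attached via GGGS linker.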

Row | Sequence | protein stability index
1 | RRFPYGPFDFSI | 0.6645 ± 0.0049
2 | RRGCTKYGSYII | 0.696 ± 0.082
3 | RRGCYLFTPRPG | 0.648 ± 0.015
4 | RRGLRVTETPVR | 0.772 ± 0.011
5 | RRGWRRGGLGNG | 0.683 ± 0.052
6 | RRHGDVGFGVGW | 0.82 ± 0.1
7 | RRHPRLPSLSGL | 0.651 ± 0.044
8 | RRIVAPYSGEAA | 0.774 ± 0.013
9 | RRKEEEGKEVRK | 0.666 ± 0.01
10 | RRMDGHLRELPA | 0.685 ± 0.058
11 | RRNARRARARWR | 0.637 ± 0.065
12 | RRNPTCPSGTQK | 0.7 ± 0.021
13 | RRPFPSSVVFPH | 0.702 ± 0.023
14 | RRPRIANIETDY | 0.678 ± 0.0046
15 | RRRGRGAVGATR | 0.716 ± 0.073
16 | RRRLLCVCDLMM | 0.576 ± 0.038
17 | RRSCSMQISSRN | 0.642 ± 0.045
18 | RRSLSVYPRFRT | 0.714 ± 0.037
19 | RRSRFSGACLLM | 0.773 ± 0.13
20 | RRTRRSTGHATG | 0.665 ± 0.043
21 | RRTSPNKNLKNQ | 0.618 ± 0.097
22 | RRVPTDQYRLLE | 0.696 ± 0.027
23 | RRVYGRELHPSQ | 0.731 ± 0.029
24 | RRWATGGVIGGR | 0.677 ± 0.0074
25 | RSALVPPRLPAS | 0.675 ± 0.075

Row | Sequence | protein stability index
26 | RSCAHATLAYVP | 0.771 ± 0.082
27 | RSDCLIDSRMVD | 0.694 ± 0.094
28 | RSDRDGPPRGDS | 0.719 ± 0.087
29 | RSFPPPPARSLP | 0.711 ± 0.039
30 | RSGCGYCLVRLG | 0.541 ± 0.0007
31 | RSGGSSPRRLFT | 0.7 ± 0.0095
32 | RSHAHTRNGSSA | 0.675 ± 0.022
33 | RSHLLPPPRHQH | 0.7333 ± 0.00099
34 | RSLGGGVGARFV | 0.695 ± 0.037
35 | RSLSPPPASPIP | 0.6755 ± 0.0051
36 | RSLYGLMNPPRG | 0.71 ± 0.011
37 | RSNLGLNLVLAI | 0.591 ± 0.031
38 | RSNNKFAKPIQY | 0.663 ± 0.11
39 | RSPHLPTARSSQ | 0.723 ± 0.018
40 | RSPLPHPPPHSY | 0.612 ± 0.054
41 | RSPPLEPTLDPL | 0.785 ± 0.1
42 | RSPTRHAPPRPV | 0.639 ± 0.095
43 | RSRDDAGASLHL | 0.6666 ± 0.0054
44 | RSRKICYREEKR | 0.644 ± 0.029
45 | RSSDRGDVRATC | 0.689 ± 0.062
46 | RSSGHQIRDKSA | 0.74 ± 0.022
47 | RSSNNQRARPPQ | 0.627 ± 0.028
48 | RSSYTLLLPPLR | 0.624 ± 0.0074
49 | RSTGGHGSQAGR | 0.711 ± 0.04
50 | RSTRDKTRLAKD | 0.743 ± 0.11

Row | Sequence | protein stability index
51 | RSTRLPGFNRRE | 0.662 ± 0.0062
52 | RSTTDVADNSRP | 0.631 ± 0.032
53 | RSWVGVEWVGGM | 0.595 ± 0.094
54 | RTDTKPTGEHEA | 0.694 ± 0.045
55 | RTFKYERNLEVY | 0.596 ± 0.046
56 | RTFTLCSPSPCA | 0.645 ± 0.059
57 | RTPAPENPPTSP | 0.609 ± 0.06
58 | RTPYFGPLAQIA | 0.622 ± 0.023
59 | RTQGVWYHGVRR | 0.745 ± 0.071
60 | RTQRGRMVGEQG | 0.732 ± 0.11
61 | RTQYEVGVGTGG | 0.692 ± 0.021
62 | RTRAPSKHAPER | 0.841 ± 0.16
63 | RTSLRYLKRVER | 0.669 ± 0.076
64 | RTSQLVSRATLD | 0.691 ± 0.019
65 | RTSRKKMLNFKY | 0.66688 ± 0.00034
66 | RTSYIKNQKKKG | 0.699 ± 0.013
67 | RTTKRNDYLSHI | 0.699 ± 0.08
68 | RVALVCGLGCIF | 0.683 ± 0.029
69 | RVEELKFKNLII | 0.6633 ± 0.004
70 | RVFLAVCYGCRV | 0.5659 ± 0.0034
71 | RVGLCGSSLGVI | 0.742 ± 0.078
72 | RVIPRTRISLLS | 0.575 ± 0.0075
73 | RVLASVGCYLFW | 0.641 ± 0.015
74 | RVLKIIGFITYA | 0.56 ± 0.034
75 | RVLLLTGAFELV | 0.585 ± 0.028

Row | Sequence | protein stability index
76 | RVLWGTESFIDL | 0.7383 ± 0.0048
77 | RVMGDAAGCGGV | 0.707 ± 0.062
78 | RVRRAGSGWCGK | 0.729 ± 0.0073
79 | RVSLELEIIPPS | 0.706 ± 0.05
80 | RVSLGHGRAFWP | 0.711 ± 0.083
81 | RVSPGGLCALSV | 0.701 ± 0.051
82 | RVSVGGSVRLFG | 0.711 ± 0.04
83 | RVSWRLSYLCPV | 0.694 ± 0.14
84 | RVTLWDGSRSRI | 0.711 ± 0.017
85 | RVTNLQSRHTLH | 0.692 ± 0.023
86 | RVVEFGFGGCHW | 0.758 ± 0.061
87 | RVVEPKWDWRRG | 0.68 ± 0.032
88 | RVVGGWGEAWRE | 0.744 ± 0.0091
89 | RVVPTKTIAGSA | 0.6502 ± 0.0014
90 | RVVWVWLMSALF | 0.54 ± 0.034
91 | RVWERGRGGDGC | 0.679 ± 0.017
92 | RVWIWHPPTVRD | 0.625 ± 0.016
93 | RWATLSREFYQI | 0.526 ± 0.023
94 | RWFILCRSLPTG | 0.613 ± 0.071
95 | RWGGGGSVSFWW | 0.712 ± 0.053
96 | RWGGRTASVPCG | 0.754 ± 0.015
97 | RWGGSSPGRSFA | 0.766 ± 0.0091
98 | RWRFSARSRLSR | 0.642 ± 0.013
99 | RWSVSLAVTVLL | 0.503 ± 0.011
100 | RYAEVGSLVSFL | 0.714 ± 0.0087

Row | Sequence | protein stability index
101 | RYEQRKNRRQKL | 0.799 ± 0.017
102 | RYGDGIELVIGS | 0.657 ± 0.011
103 | RYHQNTKKTSDI | 0.7119 ± 0.0016
104 | RYLLCSSVESAV | 0.639 ± 0.028
105 | RYLLPYQRRLFL | 0.745 ± 0.26
106 | RYNRVVCTEFHL | 0.668 ± 0.01
107 | RYRSQNNKKLEE | 0.658 ± 0.024
108 | SADILGLPRYLT | 0.656 ± 0.023
109 | SAFLPPLSPFSP | 0.753 ± 0.037
110 | SAFPSRVIGGGV | 0.661 ± 0.01
111 | SAGDLFVFEYLG | 0.6759 ± 0.0024
112 | SALRWPRPVLRV | 0.619 ± 0.017
113 | SAPCSFCPPPPG | 0.667 ± 0.026
114 | SAPLASRLCLFA | 0.644 ± 0.0065
115 | SAPSPPPPLAPP | 0.679 ± 0.041
116 | SAQSAGRQRLQK | 0.695 ± 0.014
117 | SARDQGISCAEC | 0.674 ± 0.04
118 | SASPEGTQRSPW | 0.761 ± 0.14
119 | SASPPLAERRGQ | 0.655 ± 0.043
120 | SASPVAGWLGGP | 0.677 ± 0.044
121 | SATRLGLGLCWV | 0.6383 ± 0.0039
122 | SAVRHPRPGRPG | 0.6938 ± 0.0053
123 | SCCTITVPERPR | 0.653 ± 0.045
124 | SCIAVRDPWGLV | 0.683 ± 0.018
125 | SCLFGIFRWWVG | 0.568 ± 0.025

Row | Sequence | protein stability index
126 | SCLFRVFMFHFS | 0.553 ± 0.04
127 | SCLMSFAFFASL | 0.619 ± 0.016
128 | SCLRCSCLTEVL | 0.614 ± 0.021
129 | SCPHPAPPPPPP | 0.677 ± 0.023
130 | SCPPSFIPVLSP | 0.667 ± 0.035
131 | SCPSRLFLSFRG | 0.683 ± 0.034
132 | SCRGKTRPASGR | 0.64 ± 0.027
133 | SCSLPCPRLPSD | 0.719 ± 0.15
134 | SCSVGRRIGLGQ | 0.688 ± 0.061
135 | SCVFPSSCFVLI | 0.607 ± 0.019
136 | SCVGCLYMYWSL | 0.6102 ± 0.0049
137 | SCVLSYVASYAQ | 0.66 ± 0.018
138 | SCVSCACPVYWR | 0.662 ± 0.065
139 | SDKKGQKLKESQ | 0.693 ± 0.044
140 | SDKNNRFGRVRV | 0.674 ± 0.072
141 | SDLDFSRLHGSA | 0.698 ± 0.056
142 | SDMTHRSCTLLC | 0.633 ± 0.028
143 | SDVAGRCFFVVI | 0.589 ± 0.033
144 | SDVLSFYGGVEC | 0.742 ± 0.026
145 | SEALRGVQFLSC | 0.684 ± 0.054
146 | SECFARSSSPRA | 0.7129 ± 0.0041
